Experimental findings from patent publication US20190309052A1 (Gilead, published 2019) are described below.

Assay [1] deals with T1, HBx AD38 (genotype D) residue 27-50 peptide (Hepatitis B virus genotype D).
T1 construct: also called HBx27-50; HBx27-50 peptide
T1 peptide: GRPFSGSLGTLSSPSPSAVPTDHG
Nature of the assay: ELISA, 100 ng/mL antibody with varying peptide concentration. (In general: ELISA stands for enzyme-linked immunosorbent assay.)

In the next assay the target is T2, HBx69-87 control peptide (Hepatitis B virus, UniProt P03165 69-87).
T2 construct: range 69-87; also called HBx69-87 peptide
T2 peptide: CALRFTSARRMETTVNAHQ
Nature of the assay: ELISA with varying concentrations of peptide.

B1: HBx M19 mouse monoclonal anti-HBx antibody (antibody, V domains shown)
VH: EVQLQQSGPELVKPGASVKISCQASGYTFTDYYMNWVKQSHGKRLEWIGDINPNNGGTAYNQKFKGKATLTVDRSSSTAYMEVRSLTSEDSAVYFCALLAYWGQGTLVTVSA
VL: DVVMTQTPLSLPVSLGDQASISCRSSQSLVYSDGNTHLHWYLQKTGQSPKLLIYKASNRFSGVPDRFSGSGSGTDFTLKISRVEAEDLGVYFCSQSTHVPLTFGAGTKLELKR
notes: also called aHBx mAb; αHBx mAb
Take B1: the binding result in assay [1] is on record as “binds”; with HBx69-87 control peptide, “no binding (tested: 100 ng/mL antibody)”.
